From PMC8725002, “Crystal structure of a putative short-chain dehydrogenase/reductase from Paraburkholderia xenovorans” (Acta Crystallographica. Section F, Structural Biology …, 2022)

How the values were obtained:
[1] = biological target: the molecule itself; test: SEC; Superdex 75, 25 mM HEPES pH 7.0, 500 mM NaCl, 5% glycerol, 2 mM DTT, 0.025% azide; second step of the purification; single large peak at ~76 kDa; self-association
[2] = biological target: the molecule itself; test: crystal structure; apo PxSDR, space group P2(1), 1.45 Å; sitting drop, 0.2 M magnesium chloride, 0.1 M bis-Tris pH 5.5, 25% PEG 3350, 287 K; self-association: tetramer

B1: putative short-chain dehydrogenase/reductase from Paraburkholderia xenovorans (His-PxSDR) (enzyme)
chain: MSSAGRLQGKVALVTGAGCIGPGWGNGRAIAVRFAEEGAHVIAVDRDLASMDATLELVRAAGGSVTPCLCDVTDSASVERLVADSVARCGRVDILVNNVGAPSPGGPVALDEAQWAMQLELNLTTAFLMCKYVLPVMEQQGGGAIVNIASTSGIRWTGAAQVGYAAAKAGMIQMGRVVAVEYAAKNVRVNSVVPGLLHTPMVDTKIAHNQAGGDVELLLRKRQARIPMPFMGDGRDTANAALFLASDEARFVTGTEIVVDGGMSARCD
notes: putative short-chain dehydrogenase/reductase (PxSDR), Paraburkholderia xenovorans strain LB400, UniProt Q13GE3, full length, amplified from genomic DNA; copies therefore left empty; also called P. xenovorans SDR; putative short-chain reductase; source: E. coli BL21(DE3)R3 Rosetta, purified (IMAC on Ni-NTA HisTrap FF, SEC on Superdex 75)
stoichiometry N [1]: 2
stoichiometry N [2]: 4
